Measured values as given in patent US20190381171A1, “CO-USE OF ANTI-BCMA ANTIBODY AND ANTIBODY-COUPLED T CELL RECEPTOR (ACTR) IN CANCER THERAPY AND B CELL DISORDERS” (UNUM THERAPEUTICS INC., priority 2017, published 2019).

How the values were obtained:
Format in all cases: cell-based, human
[1] = tested on: U266B1 target cells; assay: Activation markers (CD25, CD69) on ACTR T-cells by flow cytometry; settings: ACTR variant SEQ ID NO: 1, E:T 1:1, 1 μg/mL antibody, 24 hours
Description: (§1) T-cells (effector; E) and target cells (target; T) were incubated at a 1:1, effector-to-target ratio (30,000 T cells; 30,000 target cells) with 1 μg/mL of anti-BCMA antibodies in a 200-μL reaction volume in RPMI 1640 media supplemented with 10% fetal bovine serum. Reactions were incubated in a CO2 (5%) incubator at 37 degrees C. for 24 hours. Geometric Mean Fluorescence intensity (gMFI) of two activation markers, CD25 and CD69 were determined in the total CD3+ CD16+ ACTR T-cell gate via flow cytometry. Briefly, cells were washed twice in staining buffer before being stained with a Live/Dead eFluor-450 dye for 30 min at 4 degrees C. After incubating in the live/dead cell stain, cells were washed twice and incubated with 100 μL of an antibody cocktail consisting of AF488-conjugated anti-human CD3 antibody, APC-conjugated anti-human CD16 antibody, PerCP-Cy5.5-conjugated anti-human CD25 antibody, and BV510-conjugated anti-human CD69 antibody. Subsequently, cells were washed twice, fixed, permeabilized, and stained for intracellular molecules prior to detection via flow cytometry. Flow cytometry gating on CD3+ CD16+ ACTR T-cells was performed after doublet and dead cell exclusion.

[2] = tested on: U266B1 target cells; assay: Cytotoxicity assay with luciferase-expressing target cells and ACTR T-cells
Description: (§2) T-cells expressing ACTR variant SEQ ID NO: 1 (effector; E) and target cells (target; T) were incubated at a 4:1, effector-to-target ratio (120,000 T cells; 30,000 target cells) with increasing concentrations of various chimeric anti-BCMA antibodies (FIG. 3, parts A and B), humanized anti-BCMA antibody clones (FIG. 5, parts A and B), or anti-BCMA antibodies derived from the NCI-murine BCMA CAR sequence shown in WO2010104949A2 (FIG. 6, parts A and B) in a 200-μL reaction volume with RPMI 1640 media supplemented with 10% fetal bovine serum. The chimeric and humanized antibodies analyzed included fucosylated and afucosylated (labeled as “SEA”) versions of the SG16.17 and SG16.45 anti-BCMA antibodies. Reactions were incubated in a CO2 (5%) incubator at 37 degrees C. for 24 or 48 hours. An equal volume of Bright-Glo luciferase assay reagent (Promega; Madison, Wis.) was added prior to a 10 minute room temperature incubation. Luminescence was measured using an EnVision Multi-label plate reader (PerkinElmer; Waltham, Mass.). The percentage of live cells was determined by dividing the luminescence signal of a given sample by the luminescence signal in the absence of antibody and multiplying by 100. The percent cytotoxicity was determined by subtracting the percentage of live cells from 100. The percentage of antibody specific cytotoxicity (%) was then plotted as a function of antibody concentration.
(§3) In FIG. 8, T-cells expressing ACTR variant SEQ ID NO: 1 (effector; E) and target cells (target; T) were incubated at a 4:1, effector-to-target ratio (120,000 T cells; 30,000 target cells) with increasing concentrations of humanized afucosylated (SEA) anti-BCMA antibody SG16.17 in a 200-μL reaction volume in RPMI 1640 media supplemented with 10% fetal bovine serum. Target-cell luminescence was measured and percent cytotoxicity was determined as in Example 3.
(§4) T-cells (effector; E) and target cells (target; T) were incubated at varying effector-to-target (E:T) cell ratios in the presence of 10 μg/mL anti-BCMA antibody (FIG. 13), in a 200-μL reaction volume in RPMI 1640 media supplemented with 10% fetal bovine serum. The antibodies included fucosylated and afucosylated (SEA) versions of the two anti-BCMA antibodies (SG16.17 and SG16.45). […] Target cell luminescence was measured and percent cytotoxicity was determined as in Example 3.
(§5) In FIG. 18, T-cells (effector; E) and target cells (target; T) were incubated at a 4:1, effector-to-target ratio (30,000 target cells) with increasing concentration of humanized afucosylated anti-BCMA antibody hSG16.17SEA in a 200-μL reaction volume in RPMI 1640 media supplemented with 10% fetal bovine serum. […] Target cell luminescence was measured and percent cytotoxicity was determined as described in Example 3.

[3] = tested on: NCI-H929 target cells; assay: as above
Description: as §2, §3, §4, §5

[4] = tested on: NCI-H929 target cells; assay: Activation markers (CD25, CD69) on ACTR T-cells by flow cytometry; settings: ACTR variant SEQ ID NO: 1, E:T 1:1, 1 μg/mL antibody, 24 hours
Description: as §1, with “Flow cytometry gating on CD3+ CD16+ ACTR T-cells was performed after doublet and dead cell exclusion.” left out
T-cells (effector; E) and NCI-H929 target cells (target; T) were incubated at varying effector-to-target ratios in the presence of 1 μg/mL hSG16.17 SEA antibody. […] The geometric mean fluorescence intensity of CD25 was calculated within the CD3+ T-cell gate and was plotted as a function of E:T ratio (FIG. 17).

[5] = T-cells expressing ACTR variant SEQ ID NO: 1, E:T 4:1, increasing antibody concentrations, 24 or 48 hours

B1: cSG16.45SEA: afucosylated (SEA) version of the chimeric SG16.45 anti-BCMA antibody (antibody, V domains shown)
VH: EVQLVESGGGLVQPGRSLKLSCVASGFTFNDHWMTWIRQAPGRGLEWISSITNTGGATYYLDSVKGRFTISRDNAKSTLYLQMNSLRSEDTATYYCTSPGLYFDYWGQGVMVTVSS
VL: EIVLTQSPTTTAASPGEKVTITCLATSSVSVMYWYQHKSGASPKLLIYSTSSLASGVPDRFSGSGSGTSYSLTINTMEAEDAATYYCHQWSSDPPTFGSGTKLEIKR
levels of activation markers CD25 and CD69 (gMFI) on ACTR T-cells [1]: enhanced expression of CD25 and CD69 when compared to incubations with their fucosylated counterparts | cytotoxicity at varying E:T ratios ([2]; T-cells expressing ACTR variant SEQ ID NO: 1, 10 μg/mL anti-BCMA antibody, 48 hours): increased potency in comparison to the fucosylated antibodies | antibody specific cytotoxicity [2, 5]: increased cytotoxicity when compared with the fucosylated antibodies | cytotoxicity at varying E:T ratios ([3]; T-cells expressing ACTR variant SEQ ID NO: 1, 10 μg/mL anti-BCMA antibody, 24 hours): increased potency in comparison to the fucosylated antibodies | antibody specific cytotoxicity [3, 5]: increased cytotoxicity when compared with the fucosylated antibodies | levels of activation markers CD25 and CD69 (gMFI) on ACTR T-cells [4]: enhanced expression of CD25 and CD69 when compared to incubations with their fucosylated counterparts
